Results on two molecules are retold here after PMC4947157.

The target in data set [1] is T1, FANCD2;FANCI (Homo sapiens;Homo sapiens, UniProt Q9BXW9;Q9NVI1 1-1451;1-1328, |). Briefly: EMSA; supershifted by anti-HA; 0.5 ug protein, 1 nM DNA; titrated 0.125-0.5 ug; EMSA: 25 mM Tris-HCl pH 7.5, 100 mM NaCl, 6% glycerol, 1 mM DTT, 10 ul, room temperature 1 h; 4% PAGE in 0.4x TBE at 4 C. For orientation: Mobility shift assays separate free from complexed probe on a gel.

The target of data set [2] is T1, FANCD2;FANCI. Briefly: EMSA; 0.5 ug protein, 1 nM DNA; significantly stronger than non-crosslinked fork; titrated 0.125-0.5 ug; EMSA: 25 mM Tris-HCl pH 7.5, 100 mM NaCl, 6% glycerol, 1 mM DTT, 10 ul, room temperature 1 h; 4% PAGE in 0.4x TBE at 4 C.

T1 sequence (Q9BXW9 whole entry, chain 1 of 2): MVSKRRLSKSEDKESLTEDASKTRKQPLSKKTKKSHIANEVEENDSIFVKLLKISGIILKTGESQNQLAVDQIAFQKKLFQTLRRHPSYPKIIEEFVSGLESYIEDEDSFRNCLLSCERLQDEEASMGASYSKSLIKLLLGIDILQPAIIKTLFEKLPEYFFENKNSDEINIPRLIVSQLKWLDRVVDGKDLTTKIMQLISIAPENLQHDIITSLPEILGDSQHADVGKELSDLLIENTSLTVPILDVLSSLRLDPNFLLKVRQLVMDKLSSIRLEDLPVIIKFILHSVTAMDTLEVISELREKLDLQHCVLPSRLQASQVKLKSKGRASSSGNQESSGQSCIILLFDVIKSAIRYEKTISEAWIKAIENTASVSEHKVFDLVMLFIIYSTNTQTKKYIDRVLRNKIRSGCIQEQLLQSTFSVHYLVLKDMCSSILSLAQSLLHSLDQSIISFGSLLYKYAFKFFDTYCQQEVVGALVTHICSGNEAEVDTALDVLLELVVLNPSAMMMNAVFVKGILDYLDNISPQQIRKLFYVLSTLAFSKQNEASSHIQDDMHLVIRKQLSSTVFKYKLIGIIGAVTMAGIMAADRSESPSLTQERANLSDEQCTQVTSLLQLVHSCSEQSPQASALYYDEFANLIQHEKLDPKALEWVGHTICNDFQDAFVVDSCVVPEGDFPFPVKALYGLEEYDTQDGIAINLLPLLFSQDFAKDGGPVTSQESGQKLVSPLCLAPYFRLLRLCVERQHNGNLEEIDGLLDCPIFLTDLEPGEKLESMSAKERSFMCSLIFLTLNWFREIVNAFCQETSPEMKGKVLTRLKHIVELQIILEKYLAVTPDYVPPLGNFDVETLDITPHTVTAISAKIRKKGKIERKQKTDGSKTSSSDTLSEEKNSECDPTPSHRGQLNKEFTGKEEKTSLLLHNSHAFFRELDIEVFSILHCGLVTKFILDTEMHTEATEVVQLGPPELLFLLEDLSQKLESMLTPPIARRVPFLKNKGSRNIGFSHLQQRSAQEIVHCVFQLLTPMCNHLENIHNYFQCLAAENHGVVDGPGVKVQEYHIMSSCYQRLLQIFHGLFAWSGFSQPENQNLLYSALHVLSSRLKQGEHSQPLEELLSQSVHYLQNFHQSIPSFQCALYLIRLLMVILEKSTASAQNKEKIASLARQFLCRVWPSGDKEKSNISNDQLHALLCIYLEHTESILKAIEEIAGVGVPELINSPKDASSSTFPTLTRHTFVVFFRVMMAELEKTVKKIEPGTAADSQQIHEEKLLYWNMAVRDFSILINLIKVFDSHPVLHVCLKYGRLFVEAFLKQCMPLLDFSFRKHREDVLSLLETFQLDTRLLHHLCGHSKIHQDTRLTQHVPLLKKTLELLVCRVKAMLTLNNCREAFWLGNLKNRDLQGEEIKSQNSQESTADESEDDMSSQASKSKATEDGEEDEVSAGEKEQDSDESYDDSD
T1 sequence (Q9NVI1 whole entry, chain 2 of 2): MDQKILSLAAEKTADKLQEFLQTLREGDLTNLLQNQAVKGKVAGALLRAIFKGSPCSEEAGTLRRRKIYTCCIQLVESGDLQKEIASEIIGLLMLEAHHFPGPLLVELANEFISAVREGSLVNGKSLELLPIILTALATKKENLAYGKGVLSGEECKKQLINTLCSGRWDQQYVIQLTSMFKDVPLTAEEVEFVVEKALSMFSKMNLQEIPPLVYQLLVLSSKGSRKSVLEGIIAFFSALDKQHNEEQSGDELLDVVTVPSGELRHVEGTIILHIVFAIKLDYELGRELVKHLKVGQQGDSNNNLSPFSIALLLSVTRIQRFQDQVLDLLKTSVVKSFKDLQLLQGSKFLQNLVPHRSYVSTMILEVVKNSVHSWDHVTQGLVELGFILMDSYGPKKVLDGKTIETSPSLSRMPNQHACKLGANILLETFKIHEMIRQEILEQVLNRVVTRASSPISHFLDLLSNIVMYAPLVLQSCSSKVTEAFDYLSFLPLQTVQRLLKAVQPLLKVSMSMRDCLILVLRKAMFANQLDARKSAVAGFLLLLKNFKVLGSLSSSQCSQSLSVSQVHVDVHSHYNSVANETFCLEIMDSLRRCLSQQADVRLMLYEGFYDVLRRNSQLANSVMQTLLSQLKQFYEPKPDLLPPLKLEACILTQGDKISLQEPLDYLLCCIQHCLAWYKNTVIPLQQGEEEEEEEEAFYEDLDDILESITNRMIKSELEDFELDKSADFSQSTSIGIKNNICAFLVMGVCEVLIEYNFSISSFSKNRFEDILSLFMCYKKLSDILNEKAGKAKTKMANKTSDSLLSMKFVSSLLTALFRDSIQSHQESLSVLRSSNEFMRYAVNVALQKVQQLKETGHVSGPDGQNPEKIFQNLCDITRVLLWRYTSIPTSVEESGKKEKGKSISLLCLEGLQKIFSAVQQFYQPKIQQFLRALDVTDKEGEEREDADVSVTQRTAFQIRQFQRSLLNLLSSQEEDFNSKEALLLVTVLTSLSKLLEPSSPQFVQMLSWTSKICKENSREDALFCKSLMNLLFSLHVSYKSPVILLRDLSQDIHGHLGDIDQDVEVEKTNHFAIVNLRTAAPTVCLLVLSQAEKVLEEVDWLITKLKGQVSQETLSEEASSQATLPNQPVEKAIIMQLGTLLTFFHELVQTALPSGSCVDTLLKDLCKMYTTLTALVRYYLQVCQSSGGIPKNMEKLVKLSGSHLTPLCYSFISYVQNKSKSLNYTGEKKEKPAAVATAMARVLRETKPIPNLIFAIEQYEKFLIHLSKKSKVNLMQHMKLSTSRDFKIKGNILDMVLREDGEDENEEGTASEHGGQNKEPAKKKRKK

B1: ICL14FF (dsDNA)
DNA 1: CATTGTGAATTCGCCTCTCTGTCTAGCCGAAGCTCGAAACGATCTTGTGC
DNA 2: GTCCATCAAAGTTCGACTGTGCGGCTAGACAGAGAGGCGAATTCACAATG
DNA 3: GCACAAGATCGTTTCGAGCTT
DNA 4: GTCGAACTTTGATGGAC
As to B1, the binding result with FANCD2;FANCI [1] is listed as “binds”.

B2: ICL14FF-XL (dsDNA)
DNA 1: B1 DNA 1
DNA 2: B1 DNA 2
DNA 3: GCACAAGATCGTTTCGAGCTT
DNA 4: GTCGAACTTTGATGGAC
modifications: 4,5',8-trimethylpsoralen (TMP) interstrand crosslink between S5 and S6; crosslinked bases bold in original, not recoverable from text
On to B2, for which the binding result with FANCD2;FANCI [2] is reported as “binds”.
